Reference: paper PMC3804602, “Nanobody Mediated Crystallization of an Archeal Mechanosensitive Channel” (PLoS ONE, 2013)

T1: T2 mechanosensitive channel from Thermoplasma volcanium, tag free (Thermoplasma volcanium)
T1 construct: TVN0821, gene amplified from genomic DNA (DSM 4299 [GSS1*]); 297 amino acids per monomer; Cloned into pNIC28-Bsa4 (TEV site) and pET46 (Enterokinase site); In detergent (0.03 % DDM); also called T2 channel; tag free T2-channel; source: E. coli C43(DE3), purified (DDM solubilised, IMAC, tag cleavage, second IMAC, gel filtration); not shown: His-tag, N-terminal, cleaved
T1 chain: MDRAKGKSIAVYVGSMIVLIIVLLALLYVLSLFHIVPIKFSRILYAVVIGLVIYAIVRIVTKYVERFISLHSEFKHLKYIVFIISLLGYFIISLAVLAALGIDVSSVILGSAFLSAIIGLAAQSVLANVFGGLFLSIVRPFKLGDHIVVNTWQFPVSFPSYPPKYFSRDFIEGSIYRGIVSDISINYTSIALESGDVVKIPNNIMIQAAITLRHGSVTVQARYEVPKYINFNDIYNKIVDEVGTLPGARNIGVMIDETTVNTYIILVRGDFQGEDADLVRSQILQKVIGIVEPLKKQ


How the values were obtained:
[1] = molecular target: T1 mechanosensitive channel from Thermoplasma volcanium (Thermoplasma volcanium); assay: cross-linking; chemical crosslinking; the sample of T1 is not told (only T2 is shown, Figure 2 D)
[2] = molecular target: His-tagged T2 mechanosensitive channel from Thermoplasma volcanium (Thermoplasma volcanium); assay: cross-linking; chemical crosslinking of the T2 channel in crude membranes; ladder of five bands
[3] = molecular target: T1, T2 mechanosensitive channel from …; assay: SPR; BIAcore 3000, 25 °C, 20 mM sodium phosphate pH 7.4, 150 mM NaCl, 0.03 % DDM; T2 channel amine-coupled on CM5 (1500 - 2000 RU); nanobodies 0.35 - 86.1 nM injected in triplicates; global fit to a simple bimolecular model, KD = kd/ka; settings: both partners purified
[4] = molecular target: His-tagged T2 mechanosensitive channel from Thermoplasma volcanium (Thermoplasma volcanium); assay: far-Western, overlay or dot blot; channel samples run on SDS-PAGE and blotted on nitrocellulose (His-tagged T1 0.1 µg, His-tagged T2 0.1 µg, tag free T2 0.01 and 0.1 µg); strips incubated with nanobody at 1 µg/ml for 1 hour, bound His-tagged nanobody detected with HisProbe-HRP; intensity ratio of lane 2 of the sample strip to the reference strip

Molecule	stoichiometry N [1]	stoichiometry N [2]	Kd [3]	koff [3]	kon [3]	ratio of WB intensities [4]
T1 mechanosensitive channel from Thermoplasma volcanium (natural protein)	5					
His-tagged T2 mechanosensitive channel from Thermoplasma volcanium (natural protein)		5				
nanobody 11 (VHH, pHEN6 vector; also called Nb 11; CA-number 3393; source: E. coli WK6 periplasm, purified (IMAC, gel filtration); not shown: His-tag, C-terminal, kept) VHH: QVQLQESGGGLVQAGGSLRLSCAASGGPFTFGAMGWYRQAPGKQRELVAIITKKGSTNYADSVKGRFTVSRDNAKNTVYLQMNSLKPEDTAVYYCYHQTAPVADVTWGQGTQVTVSS			15.1 nM	0.0016 s⁻¹	100000 M⁻¹ s⁻¹	14.2
nanobody 16 (VHH, pHEN6 vector; also called Nb 16; CA-number 3398; source: E. coli WK6 periplasm, purified (IMAC, gel filtration); not shown: His-tag, C-terminal, kept) VHH: QVQLQESGGGLVQPGGSLTLSCAASGSPFSFGAMGWYRQAPGKQRELVAIITSGGSTNYADSVKGRFTVSRDNAKNTVYLQMNSLKPEDTAVYYCYHQTAPVADVTWGQGTQVTVSS			7.4 nM	0.0055 s⁻¹	750000 M⁻¹ s⁻¹	1.98
nanobody 7 (VHH, pHEN6 vector; also called Nb 7; CA-number 3388; source: E. coli WK6 periplasm, purified (IMAC, gel filtration); not shown: His-tag, C-terminal, kept) VHH: QVQLQESGGGLVQPGGSLRLSCTASGTIFMIDAMGWYRQAPGKQRELVALINSGGSTNYADSVKGRFAISRNNARSTVYLQMNSLKPEDTAVYYCNADTWNGVRRDVYWGQGTQVTVSS			23 nM	0.07 s⁻¹	3e+06 M⁻¹ s⁻¹	
nanobody 17 (VHH, pHEN6 vector; also called Nb 17; CA-number 3399; source: E. coli WK6 periplasm, purified (IMAC, gel filtration); not shown: His-tag, C-terminal, kept) VHH: QVQLQESGGGLVQPGGSLRLSCAASGSIFSINSMDWYRQAPGKQRELVATITSGGSTNYADSVKGRFTISRDNGKNTVYLQMNSLKPEDTAVYYCHAVVSTRGGYWGQGTQVTVSS			4.5 nM	0.00315 s⁻¹	710000 M⁻¹ s⁻¹	6.09
nanobody 6 (VHH, pHEN6 vector; also called Nb 6; CA-number 3387; source: E. coli WK6 periplasm, purified (IMAC, gel filtration); not shown: His-tag, C-terminal, kept) VHH: QVQLQESGGGLVQPGGSLRLSCAASGSIFSINAMGWYRQAPGKQRELVAVLTRRGSTNYADSMKGRFTISRDNTKNTVYLQMNSLKPEDTAVYYCNADLEGRPLYWGQGTQVTVSS			4.4 nM	0.0081 s⁻¹	1.82e+06 M⁻¹ s⁻¹	4.7
nanobody 2 (VHH, pHEN6 vector; also called Nb 2; CA-number 3381; source: E. coli WK6 periplasm, purified (IMAC, gel filtration); not shown: His-tag, C-terminal, kept) VHH: QVQLQESGGGLVQAGGSLRLSCAASGGTFRTGGMAWFRQAPGKAREFAAGISWSGGSTDYGDSVKGRFTISRDNAKNTVYLQMNSLKPEDTAVYYCAASRRFRSGVLTRADDVDYWGKGTQVTVSS			81.2 nM	0.104 s⁻¹	1.31e+06 M⁻¹ s⁻¹	
nanobody 22 (VHH, pHEN6 vector; also called Nb 22; CA-number 3406; source: E. coli WK6 periplasm, purified (IMAC, gel filtration); not shown: His-tag, C-terminal, kept) VHH: QVQLQESGGGLVQAGGSLRLSCAASGGTFKSGGMAWFRQAPGKAREFAAGISWSGGSTDYEDSVKGRFTISRDNAKNTMYLQMNSLKPEDTAVYYCAAARRFRAGVVTRADDVDYWGKGTQVTVSS			25.4 nM	0.0061 s⁻¹	240000 M⁻¹ s⁻¹	
nanobody 3 (VHH, pHEN6 vector; also called Nb 3; CA-number 3382; source: E. coli WK6 periplasm, purified (IMAC, gel filtration); not shown: His-tag, C-terminal, kept) VHH: QVQLQESGGGLVQPGGSLRLSCAASGFTLDYYAIGWFRQTPGKEREGVSCISSSDDSTYYADSVKGRFTISRDNAKNTVYLQMNSLKPEDTAVYYCATGWACTLVAGTNGMDYWGKGTQVTVSS			9.5 nM	0.0091 s⁻¹	960000 M⁻¹ s⁻¹	4.59
nanobody 1 (VHH, pHEN6 vector; also called Nb 1; CA-number 3379; source: E. coli WK6 periplasm, purified (IMAC, gel filtration); not shown: His-tag, C-terminal, kept) VHH: QVQLQESGGGLVQPGGSLRLSCAASGRIPFITAMGWYRQAPGKQRELLASVTNSEITNYADSVKGRFTISRDNARNRVYLQMNSLKPEDTAVYYCNVKRAGNLIDYWGQGTQVTVSS			14.2 nM	0.0278 s⁻¹	1.98e+06 M⁻¹ s⁻¹	
nanobody 9 (VHH, pHEN6 vector; also called Nb 9; CA-number 3390; source: E. coli WK6 periplasm, purified (IMAC, gel filtration); not shown: His-tag, C-terminal, kept) VHH: QVQLQESGGGLVQPGGSLRLSCAASGSIFGINAMGWYRRPPGKQRELVAVITSGGSTNYADSVKGRFTISRGNAKNTVYLQMNSLKAEDTAVYYCNAYTDFVRPYNHWGQGTQVTVSS			48.3 nM	0.15 s⁻¹	3.1e+06 M⁻¹ s⁻¹	
nanobody 21 (VHH, pHEN6 vector; also called Nb 21; CA-number 3404; source: E. coli WK6 periplasm, purified (IMAC, gel filtration); not shown: His-tag, C-terminal, kept) VHH: QVQLQESGGGLVQPGGSLRLSCAASGRIPFITAMGWYRQAPGRQRELLATVTNSGSTNYADSVKGRFTISRDNAKNTVSLQMNSLKAEDTAVYYCNVRRLGNLSDYWGQGTQVTVSS			37 nM	0.171 s⁻¹	5e+06 M⁻¹ s⁻¹	

Further molecules by falling Kd [3], results first:

stoichiometry N [1]	stoichiometry N [2]	Kd [3]	koff [3]	kon [3]	ratio of WB intensities [4]	Molecule
		3.9 nM	0.0036 s⁻¹	940000 M⁻¹ s⁻¹	9.8	nanobody 10 (VHH, pHEN6 vector; also called Nb 10; CA-number 3391; source: E. coli WK6 periplasm, purified (IMAC, gel filtration); not shown: His-tag, C-terminal, kept) VHH: QVQLQESGGGLVQPGGSLRLSCAASGSIFSINSMDWYRQAPGKQRELVATITSGGSTNYADSVKGRFTISRDNAKNTVYLQMNSLKPEDTAVYYCHAVVATRGGYWGQGTQVTVSS
		3.8 nM	0.0025 s⁻¹	650000 M⁻¹ s⁻¹	7.15	nanobody 12 (VHH, pHEN6 vector; also called Nb 12; CA-number 3394; source: E. coli WK6 periplasm, purified (IMAC, gel filtration); not shown: His-tag, C-terminal, kept) VHH: QVQLQESGGGLVQPGGSLRLSCVASGSIFSINAMGWYRQAPGKQRDLVAVITSRGSTNYADSVKGRFTISRDNAKNTTYLQMNSLKPEDTAVYYCNADLAAYYSGTYYDTLLYWGQGTQVTVSS
		3.5 nM	0.0036 s⁻¹	1.03e+06 M⁻¹ s⁻¹	4.86	nanobody 20 (VHH, pHEN6 vector; also called Nb 20; CA-number 3403; source: E. coli WK6 periplasm, purified (IMAC, gel filtration); not shown: His-tag, C-terminal, kept) VHH: QVQLQESGGGLVQPGGSLRLSCAASGNIFGINSMDWYRQAPGKQRELVATITSGGSTNYGDSVKGRFTISRDNAKNTMYLQMNSLKPEDTAVYYCHAVLSTRGGYWGQGTQVTVSS
		3.4 nM	0.0021 s⁻¹	620000 M⁻¹ s⁻¹	3.87	nanobody 4 (VHH, pHEN6 vector; also called Nb 4; CA-number 3383; source: E. coli WK6 periplasm, purified (IMAC, gel filtration); not shown: His-tag, C-terminal, kept) VHH: QVQLQESGGGLVQPGGSLRLSCAASGSIFSMNSMDWYRQAPGKQRELVATITSGGSTNYADSVKGRFTISRDNAWNTVTLQMNSLKPEDTAVYYCHAVLSTRGGYWGQGTQVTVSS
		2.6 nM	0.0023 s⁻¹	880000 M⁻¹ s⁻¹	6.07	nanobody 14 (VHH, pHEN6 vector; also called Nb 14; CA-number 3396; source: E. coli WK6 periplasm, purified (IMAC, gel filtration); not shown: His-tag, C-terminal, kept) VHH: QVQLQESGGGLVQPGGSLRLSCAASGSIFSINSMDWYRQAPGKQRELVATITSGGSTNYADSVKGRFTISRDNAKNTVYLQMNSLKPEDTAVYLCHAVVATRGGYWGQGTQVTVSS
		1.29 nM	0.0015 s⁻¹	1.35e+06 M⁻¹ s⁻¹	17.5	nanobody 19 (VHH, pHEN6 vector; also called Nb 19; CA-number 3402; source: E. coli WK6 periplasm, purified (IMAC, gel filtration); not shown: His-tag, C-terminal, kept) VHH: QVQLQESGGGLVQPGGSLRLSCAASGSISRLNHMGWYRQPPGKQRELVAVITSGGSTDYADSVKGRFTISSGNAKNTVYLQMNSLKTEDTAVYYCNAYSEFIRPYTLWGQGTQVTVSS
		1.1 nM	0.00052 s⁻¹	480000 M⁻¹ s⁻¹	15.7	nanobody 18 (VHH, pHEN6 vector; also called Nb 18; CA-number 3401; source: E. coli WK6 periplasm, purified (IMAC, gel filtration); not shown: His-tag, C-terminal, kept) VHH: QVQLQESGGGLVQPGGSLRLSCAASGSIFSINAMGWYRQAPGKQRELVAFITKVGNTNYADSVKDRFAISRDNAKNTVYLQMNSLKPEDTAVYYCYADIENSSNYKQDFYWGQGTQVTVSS
		0.78 nM	0.00095 s⁻¹	1.26e+06 M⁻¹ s⁻¹	16.6	nanobody 23 (VHH, pHEN6 vector; also called Nb 23; CA-number 3407; source: E. coli WK6 periplasm, purified (IMAC, gel filtration); not shown: His-tag, C-terminal, kept) VHH: QVQLQESGGGLVQPGGFLTLSCAASGSPFSFGAMGWYRQAPGKQRELVAIITRRGSTNYADSVKGRFTVSSDNAKNTVYLQMNSLKPEDTAVYYCYHQTAPVADVTWGQGTQVTVSS
		0.61 nM	0.00088 s⁻¹	1.46e+06 M⁻¹ s⁻¹	15.1	nanobody 13 (VHH, pHEN6 vector; also called Nb 13; CA-number 3395; source: E. coli WK6 periplasm, purified (IMAC, gel filtration); not shown: His-tag, C-terminal, kept) VHH: QVQLQESGGGLVQPGGSLRLSCAASGSISRINHMGWYRQPPGKQRELVAVITSGGSTNYADSVKGRFTISRGNYQNTVYLQMNSLKAEDTAVYYCNAYTEFDRPYNHWGQGTQVTVSS
		0.58 nM	0.00089 s⁻¹	1.56e+06 M⁻¹ s⁻¹	15	nanobody 8 (VHH, pHEN6 vector; also called Nb 8; CA-number 3389; source: E. coli WK6 periplasm, purified (IMAC, gel filtration); not shown: His-tag, C-terminal, kept) VHH: QVQLQESGGGLVQPGGSLRLSCAASGSPFSFGAMGWYRQAPGKQRELAAIITNAGSTMYADSVKGRFTVSRVNAKNTVSLQMNNLKPEDTAVYYCYAQTAPVADVTWGQGTQVTVSS
		0.057 nM	0.00011 s⁻¹	1.96e+06 M⁻¹ s⁻¹	25.7	nanobody 15 (VHH, pHEN6 vector; also called Nb 15; CA-number 3397; source: E. coli WK6 periplasm, purified (IMAC, gel filtration); not shown: His-tag, C-terminal, kept) VHH: QVQLQESGGGLVQPGGSLRLSCAASGSISTINHMGWYRQPPGKQRELVAVITRSGSTNYADSVKGRFTISRGNVKNTVYLQMNSVKAEDTAVYYCNAYTEFDRPYNHWGQGTQVTVSS
